How the values were obtained:
[1] = target: Full-length mouse His-PERIOD2-flag (mouse, UniProt O54943 1-1257); assay: pull-down
[2] = target: TAMRA-BMAL1 mTAD WT probe (mouse); assay: fluorescence polarisation
[3] = target: TAMRA-BMAL1 mTAD Δswitch probe (594-F619Y) (mouse); assay: fluorescence polarisation
[4] = target: BMAL1 transactivation domain (TAD), residues 579-626 (mouse); assay: ITC

Chain of Full-length mouse His-PERIOD2-flag (O54943 whole entry): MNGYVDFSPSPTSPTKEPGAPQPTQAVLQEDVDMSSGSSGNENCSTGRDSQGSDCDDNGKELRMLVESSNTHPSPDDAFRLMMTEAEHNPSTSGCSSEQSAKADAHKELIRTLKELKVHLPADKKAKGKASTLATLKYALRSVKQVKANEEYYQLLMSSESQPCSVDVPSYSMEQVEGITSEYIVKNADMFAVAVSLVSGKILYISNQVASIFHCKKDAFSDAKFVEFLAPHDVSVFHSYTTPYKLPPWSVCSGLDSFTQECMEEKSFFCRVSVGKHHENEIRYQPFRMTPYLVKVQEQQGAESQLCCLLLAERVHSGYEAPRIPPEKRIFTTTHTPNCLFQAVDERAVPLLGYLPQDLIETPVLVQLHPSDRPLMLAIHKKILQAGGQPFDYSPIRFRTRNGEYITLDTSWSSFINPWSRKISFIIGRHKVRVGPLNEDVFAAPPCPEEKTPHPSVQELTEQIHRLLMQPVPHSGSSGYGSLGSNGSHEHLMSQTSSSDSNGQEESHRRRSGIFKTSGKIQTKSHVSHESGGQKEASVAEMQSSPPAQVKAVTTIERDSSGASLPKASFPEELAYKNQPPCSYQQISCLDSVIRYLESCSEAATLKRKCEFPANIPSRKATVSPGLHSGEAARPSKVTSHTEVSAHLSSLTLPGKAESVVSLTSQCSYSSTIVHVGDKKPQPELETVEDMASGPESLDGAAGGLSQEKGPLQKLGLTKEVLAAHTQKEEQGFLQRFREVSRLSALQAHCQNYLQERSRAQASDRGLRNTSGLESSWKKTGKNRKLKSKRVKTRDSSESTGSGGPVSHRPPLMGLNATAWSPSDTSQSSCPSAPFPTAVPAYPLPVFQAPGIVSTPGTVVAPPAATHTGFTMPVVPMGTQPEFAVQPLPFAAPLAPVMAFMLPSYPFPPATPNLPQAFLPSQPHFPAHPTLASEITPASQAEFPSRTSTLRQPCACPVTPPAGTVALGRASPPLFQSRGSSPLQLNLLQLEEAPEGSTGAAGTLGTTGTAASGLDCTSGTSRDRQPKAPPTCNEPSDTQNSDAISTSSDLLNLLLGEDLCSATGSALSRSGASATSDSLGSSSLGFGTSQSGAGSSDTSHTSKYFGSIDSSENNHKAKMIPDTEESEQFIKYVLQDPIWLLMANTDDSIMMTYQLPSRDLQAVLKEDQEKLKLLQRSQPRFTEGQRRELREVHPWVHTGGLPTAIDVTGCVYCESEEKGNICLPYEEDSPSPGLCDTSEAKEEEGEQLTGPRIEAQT

B1: CK1δ kinase domain (residues 1-294) (enzyme, human, UniProt P48730 1-294, looked up)
chain: MELRVGNRYRLGRKIGSGSFGDIYLGTDIAAGEEVAIKLECVKTKHPQLHIESKIYKMMQGGVGIPTIRWCGAEGDYNVMVMELLGPSLEDLFNFCSRKFSLKTVLLLADQMISRIEYIHSKNFIHRDVKPDNFLMGLGKKGNLVYIIDFGLAKKYRDARTHQHIPYRENKNLTGTARYASINTHLGIEQSRRDDLESLGYVLMYFNLGSLPWQGLKAATKRQKYERISEKKMSTPIEVLCKGYPSEFATYLNFCRSLRFDDKPDYSYLRQLFRNLFHRQGFSYDYVFDWNMLK
binding result [1]: binds

B2: CHRONO minimal repressive domain (MRD), tag form not stated (domain or fragment)
chain: ELETSLNTQGCTTEGDLLFAQKCKELQGFIPPLTDLLNGLKMGRFERGLSSFQQSVAMDRIQRIVGVLQKPQMGERYLGTLLQVEGMLKTWFPQIAAQKSSLGGGKHQLTKHFPSHHSDSAASSPASPMEKMDQTQLGHLALKPK
IC50 [2]: 375 nM | Kd [2]: 386 nM | Kd [3]: 1540 nM

B3: His-CHRONO minimal repressive domain (MRD) (domain or fragment)
chain: ELETSLNTQGCTTEGDLLFAQKCKELQGFIPPLTDLLNGLKMGRFERGLSSFQQSVAMDRIQRIVGVLQKPQMGERYLGTLLQVEGMLKTWFPQIAAQKSSLGGGKHQLTKHFPSHHSDSAASSPASPMEKMDQTQLGHLALKPK
Kd [4]: 369 nM | stoichiometry N [4]: 1

Source: doi:10.1101/2022.10.04.510902 (bioRxiv, 2022)
